Measured values from patent US20150044195A1.

Target: Native (wild-type) human factor VIIa (human) (UniProt P08709)
Test: cell-based or functional assay

Sequence of UniProt P08709 (P08709 213-466, chain 2 of 2, other chains not shown): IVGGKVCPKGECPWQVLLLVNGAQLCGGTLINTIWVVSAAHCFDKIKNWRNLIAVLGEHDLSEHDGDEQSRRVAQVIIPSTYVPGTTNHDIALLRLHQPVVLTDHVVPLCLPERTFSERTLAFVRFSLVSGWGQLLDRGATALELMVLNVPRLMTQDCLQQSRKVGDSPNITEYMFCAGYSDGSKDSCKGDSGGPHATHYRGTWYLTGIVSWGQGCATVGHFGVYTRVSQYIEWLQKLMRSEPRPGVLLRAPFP

A Relative first-order rate constants (ratio) of ATIII inhibition (ratio to wt-Factor VIIa) of 1 was found for “Antithrombin III (ATIII) (from UniProt P01008 33-464)” in this work.
